Data published in patent US20210353784A1, “DETECTING AND TREATING CANCERS USING CELL PENETRANT MTP53-OLIGOMERIZATION-DOMAIN PEPTIDE” (priority 2020, published 2021).

Key:
MDA-MB-468 cells = conditions: 500 nM, 24 h; mtp53 R273H
Description: (§1) Three independent experiments with biological replicates were performed for all ±SEM *p-value ≤0.05, **p-value ≤0.01, ***p-value ≤0.001.
(§2) Toxicity to normal cells and tissues represents an important barrier for drug delivery, and an advantage of cell penetrating peptide-based therapies is their low toxicity compared to most drug carriers. To evaluate the toxicity of Cy5p53Tet to breast cancer cells and normal breast mammary epithelial cells, the viability of cells was evaluated following peptide treatment (FIG. 1G).
(§3) Peptidecytotoxicity Assay. A total of 1.25×10^5 cells were seeded in a 12-well plate the day before and grown at 37° C. Cells were treated with 500 nM Cy5p53Tet for 24 h, and 0.1 mL MTT solution [5 mg mL^−1 (3-(4, 5-dimethylthiazolyl-2)-2, 5-diphenyltetrazolium bromide] was added to the cells and incubated at 37° C. for 1 h. The cells were then resuspended in 0.04 N hydrochloric acid diluted in isopropanol and incubated in the dark on a shaker for 5 min at room temperature. The absorbance was quantified at 550 nm, and the background absorbance was subtracted at 620 nm.

HCC70 = conditions: 500 nM, 24 h; mtp53 R248Q
Description: as §1, §2, §3

[1] = tested on: MDA-MB-468 cells compared to MCF7 cells; test: Cy5p53Tet cellular uptake by live cell imaging (confocal, Nikon Element quantification); type: cell-based, Human; conditions: 500 nM, 2 h incubation; Nikon Element analysis
Description: Hoechst staining (blue) was used to stain the nuclei. Two independent experiments with biological replicates were performed.
FIG. 1D is a graph showing quantification of Cy5p53Tet uptake in MCF7 and MDA-MB-468 cells via Nikon Element analysis. At least 200 cells per sample were measured by fluorescence microscopy.
In vitro uptake, specificity, and toxicity assays were performed to gauge the potential of mtp53ODPs as imaging agents. Live cell imaging was performed to compare the ability of Cy5p53Tet to stain ER+MCF7 breast cancer cells that express wtp53 and MDA-MB-468 TNBC cells which express stable missense mtp53 R273H. Cy5p53Tet was anticipated to detect both wtp53 and mtp53, but because of the higher stability of mtp53, MDA-MB-468 cells were predicted to have a higher signal. The intensity of the Cy5p53Tet signal was clearly higher in the MDA-MB-468 cells compared to the MCF7 cells (FIG. 1B), a difference that correlated to the level of p53 expression as determined by Western blot (FIG. 1C). […] However, after a 2 h incubation with Cy5p53Tet, the colocalization was clearly evident with the Hoechst-stained DNA (Supplemental Illustration S3 in U.S. Provisional application 63/186,409).
Cy5p53Tet Cellular Uptake by Live Cell Imaging. Cells were seeded at 2×10^5 per well in a 12-well glass bottom plate 1 day before imaging (MatTek). […]

mtp53 R273H = mtp53 R273H (Homo sapiens, UniProt P04637, R273H); test: Co-immunoprecipitation assay with purified mtp53 R273H; type: binding; conditions: anti-p53 antibody sample; molar ratio 1:1; not by normal IgG
Description: Anti-p53 DO1 antibody-coupled magnetic beads were used to pull down Cy5p53Tet/mtp53 complex, and normal mouse IgG-coupled magnetic beads were used as a control.
To experimentally determine if Cy5p53Tet binds to mtp53 R273H, a co-immunoprecipitation assay was performed using purified mtp53 mixed with Cy5p53Tet in a molar ratio of 1:1 (FIG. 3C). The co-immunoprecipitation was carried out using anti-p53 antibody or nonspecific IgG.
Co-immunoprecipitation Assay. Magnetic beads were used for co-immunoprecipitation assays, and 50 μL of the bead suspension was placed in each sample. The beads were washed twice with 1×PBS-0.1% Tween-20 by vortexing for 10 s. The beads were resuspended in 1×PBS-0.1% Tween-20 with either 1 μg of anti-p53 DO1 antibody or 1 μg of normal mouse IgG at a final volume of 100 μL. The tubes were incubated at room temperature for 10 min with continuous mixing. The beads were washed three times with 1×PBS-0.1% Tween-20, and 1 μg of purified mtp53 R273H and 100 ng of Cy5p53Tet peptide were incubated with the immobilized antibody at 4° C. for 150 min with constant rotation. Beads were pelleted and then washed with 1 mL 1×PBS-0.1% Tween-20 four times at room temperature. Bound proteins were eluted by incubating in 2×SDS Laemmli sample buffer containing 0.2 M DTT, heated at 95° C. for 10 min, and loaded on 15 or 10% polyacrylamide gel.

H-CysCy5-RKKRRQRRGEYFTLQIRGRERFEMFRELNEALELK-OH (N-terminal Cy5; Synthetic peptide based on p53 protein) [Cy5p53Tet]
mitochondrial activity reduced by (MDA-MB-468 cells): 10.6% | mitochondrial activity reduced by (HCC70): 13.6% | uptake of the mtp53ODP in MDA-MB-468 cells compared to MCF7 cells [1]: twofold higher | pull-down of Cy5p53Tet with mtp53 R273H (mtp53 R273H): significantly pulled down
